Reference: patent publication US20190248902A1 (published 2019)
Residue numbers refer to the chain shown, from its start.

T1: human ASGR-1 (wild type) (human, UniProt P07306 1-291)
T1 construct: also called wt ASGR1; huASGR-1
T1 sequence: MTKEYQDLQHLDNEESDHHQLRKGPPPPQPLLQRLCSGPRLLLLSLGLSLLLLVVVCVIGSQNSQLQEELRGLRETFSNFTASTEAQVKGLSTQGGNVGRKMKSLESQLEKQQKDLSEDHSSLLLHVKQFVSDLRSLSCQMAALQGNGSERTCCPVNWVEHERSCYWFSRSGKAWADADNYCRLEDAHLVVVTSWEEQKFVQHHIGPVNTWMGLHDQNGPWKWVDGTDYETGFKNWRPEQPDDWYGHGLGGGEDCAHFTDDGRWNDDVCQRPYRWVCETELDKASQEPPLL

T2: human ASGR-1 mutant construct H203 (human, UniProt P07306 1-291)
T2 construct: Arg/Glu scanning: non-arginine residues were changed to arginine; Transiently expressed on CHO-S cells
T2 sequence: T1 sequence with H203R

B1: 194C10 (antibody, V domains shown)
VH: QVQLQQWGAGLLKPSETLSLTCAVSGGSFRYYYWSWIRQPPGKGLEWFGEINHSGSTNYNPSLKSRVTISIDTSKNQFSLKLRSVTAADTAVYYCARDYGAFDIWGQGTMVTVSS
VL: EIVLTQSPGTLSLSPGERATLSCRASPSVNSGYLAWYQQKPGQTPRLLIFGASSRATGIPDRFSASGSGADFTLTISRLEPEDFAVYFCQQYESSPWTFGQGTKVEIK
notes: mAb
B2: 218G4 (antibody, V domains shown)
VH: QVQLVESGGGVVQPGRSLRLSCAASGFTFSSYGLHWVRQAPGKGLEWVAVIWYDGSNKYYADSVKGRFTISRDNSKNTLYLQMNSLRVEDTAVYYCANWYYYYYGMDVWGQGTTVTVSS
VL: QSVLTQPPSVSAAPGQKVTISCSGSSSNIGNNYVSWYQQLPGTAPKLLLYDSNKRPSGIPARFSGSKSGTSATLGITGLQTGDEADYYCGTWDSSLNTVVFGGGTKLTVL
notes: mAb
B3: 193E7 (antibody, V domains shown)
VH: QVQLQQWGAGLLKPSETLSLTCAVYGGSFSGYFWTWIRQPPGKGLEWIGEINHSGSTNYNPSLKSRVTISVDTSKNQFSLKLSSVTAADTAVYYCARDYGADYWGQGTLVAVSA
VL: DIQMTQSPSSLSASVGDRVTITCRASQGIRNDLGWYQQKPGKAPKRLIYSASSLQRGVPSRFSGSGSGTEFTLTISSLQPEDFATYYCLQHKRYPLTFGGGTKVEIK
notes: mAb
B4: 198G3 (antibody, V domains shown)
VH: QVQLVESGGGVVQPGRSLKLSCAASGFTFSTYGMHWVRQAPGKGLEWVAVIWYDGTNKNYADSVKGRFTISRDNSKNTLCLQMNSLRAEDTAVYYCARDQGVGYDGLDVWGQGTTVTVSS
VL: DIQMAQSPSSLSASVGDRVTITCRTSQGIGKYLAWFQQKPGKAPKSLLYKASSLQGGVPSKFSGSGSGTDFTLTISSLQPEDFATYYCQQYMTYPLTFGGGTKVEIK
notes: mAb
B5: 194C1 (antibody, V domains shown)
VH: B4 VH with K19R, T31S, T56S, K58E, N59H, C80Y, D99N, Q100R, D105Y
VL: B4 VL with A5T, T25A, G30S, K31N, L48I, K50A, G56S, Q89L, Q90H, M92L
notes: mAb
B6: 197G3 (antibody, V domains shown)
VH: B4 VH with K19R, A23V, T31S, Y32H, T56S, C80Y, Q100P, G101S, L107M
VL: DIQMTQSPSSLSASVGDRVTITCRASQGIGNHLAWFQQKPGKAPKSLIYAASSLQSGVPSKFSGSRSGTDFSLTISSLQPEDFATYYCQQYSNYPVTFGPGTKVDIK
notes: mAb
B7: 75G3 (antibody, V domains shown)
VH: QVQLQQWGAGLLKPSETLSLTCAVYGGSLSGSYWSWIRQPPGKGLEWIGEINLSGSTNYNPSLKSRVTISVDTSKSQFSLTLRSVTAADTAVYYCARDYGGLDYWGQGTLVTVSS
VL: EIVLTQSPGTLSLSPGERATLSCRARQNVDSSYLAWYQQKPGQAPRLLIYGASSRATGIPDRFSGSGSGTDFTLTISRLEPEDFAVFYCQQYERSPWTFGQGTKVEIK
notes: mAb
B8: 176H4 (antibody, V domains shown)
VH: QVQLVESGGGVVQPGRSLRLSCAASGFTFSSYGMHWVRQAPGKGLEWVAIIWYDGSYKYYADSVKGRFTISRDNSKNTLYLQMSSLRAEDTAVYYCARDAHDFWSGYFAYWGQGALVTVSS
VL: DIVMTQTPLSLSVTPGQPASISCKSSQSLLHGDGKTYLYWYLQKPGQPPQLLIYEVSNRFSGVPDRFSGSGSGTDFTLKISRVEAEDVGIYYCMQSIQIPWTFGQGTRVEIK
notes: mAb

The binders below were run against T1, human ASGR-1 (wild type) (assay: FACS, transfected CHO-S cells, mAb 5 ug/ml).
Summary of the method: (§1)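 Transiently transfected CHO-S cells expressing wild-type or mutant hASGR-1 incubated with antibody at 5 ug/ml, 1 h at 4 °C; bound antibody detected by Alexa Fluor 647 anti-Fc plus 7-AAD, by flow cytometry. Binding normalized to expression using an unaffected antibody (65C12), then to wild type; hits defined as >3× IQR above third quartile.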

Row | FACS Binding Geomean | Binder
1 | 28100 | B1
2 | 12200 | B2
3 | 35500 | B3
4 | 21500 | B4
5 | 20900 | B5
6 | 13300 | B6
7 | 37200 | B7
8 | 33500 | B8

Each binder was assayed against T2, human ASGR-1 mutant construct H203 (assay: FACS, transfected CHO-S cells, mAb 5 ug/ml).
Summary of the method: as §1

Row | FACS Binding Geomean | Binder
9 | 13200 | B1
10 | 7930 | B2
11 | 13800 | B3
12 | 13100 | B4
13 | 11000 | B5
14 | 3500 | B6
15 | 14500 | B7
16 | 10200 | B8

What follows are binders tested against T1, human ASGR-1 (wild type) (assay: FACS ratio: 65C12 geomean / this mAb geomean).
Summary of the method: (§2)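 CHO-S cells transiently expressing wild-type or point-mutant hASGR-1 were stained with antibody at 5 ug/ml for 1 h at 4 °C. Bound antibody was detected by Fc-specific Alexa 647 secondary plus 7-AAD and read by flow cytometry. Ratio is 65C12 geomean divided by test mAb geomean, normalizing for expression.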

Row | Expression Normalization to mAb 65C12 | Binder
17 | 1.99 | B1
18 | 4.59 | B2
19 | 1.58 | B3
20 | 2.61 | B4
21 | 2.69 | B5
22 | 4.21 | B6
23 | 1.51 | B7
24 | 1.67 | B8

Each binder was assayed against T2, human ASGR-1 mutant construct H203 (assay: FACS ratio: 65C12 geomean / this mAb geomean).
Summary of the method: as §2

Row | Expression Normalization to mAb 65C12 | Binder
25 | 1.95 | B1
26 | 3.25 | B2
27 | 1.87 | B3
28 | 1.96 | B4
29 | 2.33 | B5
30 | 7.35 | B6
31 | 1.78 | B7
32 | 2.52 | B8
